1 substance from PMC4074040 can be followed below.

The test addresses BBPLo, bilin-binding protein from Lonomia obliqua (a variant of lopap) (Lonomia obliqua). Briefly: SEC; analytical gel filtration of recombinant, refolded BBPLo on Superdex 75, calibrated with standards (myoglobin, NP2, IPP, BSA); monomers to dimer. On the technique in general: SEC sorts molecules by how far they enter the pores of the column.

“BBPLo, bilin-binding protein from Lonomia obliqua (a variant of lopap) (natural protein)”: the stoichiometry N stood at 2.

The stoichiometry N is the number of molecules, sites or subunits per partner or assembly.
